From article PMC2744565, “Human Telomerase Reverse Transcriptase (hTERT) Q169 Is Essential for Telomerase Function In Vitro and In Vivo”

Key:
Conditions in all cases: protein: ivt; tags: N-terminal FLAG; label: 5'-biotin
[1] = target: T1, hTERT Q169D (Homo sapiens, UniProt O14746 1-1132, Q169D); experiment: pull-down; stronger than WT; 5'-biotin primers with RRL-made 35S-hTERT (no hTR), neutravidin bead pull-down; primer mix pre-incubated on ice 45-60 min; buffer, salt and pH not given (ref 28)
T1 sequence (O14746 whole entry Q169D): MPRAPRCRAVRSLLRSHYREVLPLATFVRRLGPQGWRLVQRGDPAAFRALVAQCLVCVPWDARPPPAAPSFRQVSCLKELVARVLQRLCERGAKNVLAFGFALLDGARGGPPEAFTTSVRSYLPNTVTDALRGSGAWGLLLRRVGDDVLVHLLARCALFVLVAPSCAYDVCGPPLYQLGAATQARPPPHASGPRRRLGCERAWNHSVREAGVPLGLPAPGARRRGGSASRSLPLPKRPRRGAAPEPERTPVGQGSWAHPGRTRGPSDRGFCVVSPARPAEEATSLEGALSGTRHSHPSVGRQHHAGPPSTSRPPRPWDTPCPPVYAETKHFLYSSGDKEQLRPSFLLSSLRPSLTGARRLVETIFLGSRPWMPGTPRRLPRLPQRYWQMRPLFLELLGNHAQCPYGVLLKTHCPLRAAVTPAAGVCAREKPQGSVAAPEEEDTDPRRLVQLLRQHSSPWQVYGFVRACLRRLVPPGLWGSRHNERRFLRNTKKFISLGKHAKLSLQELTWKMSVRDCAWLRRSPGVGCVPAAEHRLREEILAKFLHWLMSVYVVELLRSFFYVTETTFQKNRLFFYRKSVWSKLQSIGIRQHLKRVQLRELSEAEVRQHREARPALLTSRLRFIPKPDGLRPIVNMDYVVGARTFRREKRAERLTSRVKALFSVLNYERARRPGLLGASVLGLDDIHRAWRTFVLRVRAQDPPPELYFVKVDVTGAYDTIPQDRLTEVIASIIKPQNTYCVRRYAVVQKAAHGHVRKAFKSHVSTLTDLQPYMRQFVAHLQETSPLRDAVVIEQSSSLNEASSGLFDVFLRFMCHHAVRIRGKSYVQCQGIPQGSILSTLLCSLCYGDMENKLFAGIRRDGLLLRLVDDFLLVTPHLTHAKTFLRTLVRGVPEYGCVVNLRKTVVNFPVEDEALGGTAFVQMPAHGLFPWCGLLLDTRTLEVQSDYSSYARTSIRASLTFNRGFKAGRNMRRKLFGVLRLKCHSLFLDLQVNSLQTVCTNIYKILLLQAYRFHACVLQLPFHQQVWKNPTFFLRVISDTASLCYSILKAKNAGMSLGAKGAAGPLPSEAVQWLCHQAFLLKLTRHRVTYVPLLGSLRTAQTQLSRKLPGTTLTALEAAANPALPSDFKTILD

[2] = target: T2, hTERT Q169N (Homo sapiens, UniProt O14746 1-1132, Q169N); experiment: as above
T2 sequence (O14746 whole entry Q169N): as the sequence (O14746 whole entry Q169D) above, with D169N counted along it

[3] = target: T3, hTERT Q169A (Homo sapiens, UniProt O14746 1-1132, Q169A); experiment: as above
T3 sequence (O14746 whole entry Q169A): as the sequence (O14746 whole entry Q169D) above, with D169A counted along it

[4] = target: hTERT WT (Homo sapiens, UniProt O14746 1-1132); experiment: pull-down; 5'-biotin primers with RRL-made 35S-hTERT (no hTR), neutravidin bead pull-down; primer mix pre-incubated on ice 45-60 min; buffer, salt and pH not given (ref 28)
Chain of hTERT WT (O14746 whole entry): as the sequence (O14746 whole entry Q169D) above, with D169Q counted along it

[5] = target: T1, hTERT Q169D; experiment: as above
[6] = target: T2, hTERT Q169N; experiment: as above
[7] = target: T3, hTERT Q169A; experiment: as above

Binder	binding result [1]	binding result [2]	binding result [3]	binding result [4]	binding result [5]	binding result [6]	binding result [7]
TTAGGGTTAGGG (ssDNA) [bio-TELO12]	binds	binds	binds	–	–	–	–
TTAGGG (ssDNA) [bio-TELO6]	binds	binds	binds	–	–	–	–
TTGGGGTTGGGGTTGGGG (ssDNA) [bio-Tetrahymena]	–	–	–	binds	binds	binds	binds
TTAGGGTTAGGGTTAGGGTTAGGG (ssDNA) [bio-TELO24]	–	–	binds	–	–	–	–
